Test results reported in patent publication EP4491230A1 (iOmx Therapeutics AG, dated 2025).

Molecular target: recombinant LILRA1 ECD (human, UniProt O75019 17-461)
Test: BLI, IgG on AHC sensor, ECD as analyte

recombinant LILRA1 ECD, sequence (O75019 17-461 limits assumed): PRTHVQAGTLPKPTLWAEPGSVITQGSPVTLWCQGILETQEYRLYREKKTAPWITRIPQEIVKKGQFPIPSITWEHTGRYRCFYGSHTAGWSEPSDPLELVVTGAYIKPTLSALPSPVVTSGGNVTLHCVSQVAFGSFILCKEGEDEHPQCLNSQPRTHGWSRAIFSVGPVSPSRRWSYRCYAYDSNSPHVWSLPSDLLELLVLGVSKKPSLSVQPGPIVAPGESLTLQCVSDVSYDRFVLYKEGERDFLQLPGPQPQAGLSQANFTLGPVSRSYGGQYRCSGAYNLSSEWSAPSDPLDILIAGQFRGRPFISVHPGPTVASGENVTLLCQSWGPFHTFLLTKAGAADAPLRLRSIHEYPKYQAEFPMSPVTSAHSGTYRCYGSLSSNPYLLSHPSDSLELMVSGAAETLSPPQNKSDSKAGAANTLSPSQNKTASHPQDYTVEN

B1: A-046 (antibody, V domains shown)
VH: QVQLVQSGAEVKKPGSSVKVSCKASGGSFQSYAINWVRQAPGQGLEWMGGIIPGFSTANYAQKFQGRVTITADESTSTAYMELSSLRSEDTAVYYCAKDLGTYSSGWPYYYGMDVWGQGTTVTVSS
VL: SYELTQPPSVSVSPGQTASITCSGDKLGDKYASWYQQKPGQSPVLVIYQDSKRPSGIPERFSGSNSGNTATLTISGTQAEDEADYYCQLTHLTIYVFGGGTKLTVL
notes: HC of A-015 and LC of A-036; Tested as IgG
  binding result: no binding (tested: 900 nM of LILRA1 ECD)
